From the supplement of paper PMC9170038

Experiments:
[1] = system: MS2 coat protein; test: apparent KD of MS2 coat protein, switch OFF state (with FMN for OFF switches, without FMN for ON switches); designed switch direction (-1 OFF switch, 1 ON switch): -1; higher = weaker reporter binding; conditions: FMN input: 0 or 200 uM; Eterna round: R93 (includes R88 designs)
Method in brief: (§1)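 Illumina sequencing clusters were used for on-chip transcription of designed RNA switches. Titration with SNAP-549-labelled MS2 coat protein followed, in twofold steps from 0.7 or 1.5 nM to 3 µM in 100 mM Tris-HCl pH 7.5, 80 mM KCl, 4 mM MgCl2, without or with constant ligand. Apparent KD is each design's median of fits to normalised cluster binding curves.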

[2] = system: MS2 coat protein; test: apparent KD of MS2 coat protein, switch ON state; designed switch direction (-1 OFF switch, 1 ON switch): -1; higher = weaker reporter binding; conditions: FMN input: 0 or 200 uM; Eterna round: R93 (includes R88 designs)
Method in brief: as §1

| Sequence | apparent KD of MS2 coat protein [1] [nM] | apparent KD of MS2 coat protein [2] [nM] |
| --- | --- | --- |
| AAAAAGUCAGGAUAUGUAGCAUGAUACGAAAGUAUCAUGCUACAGAAGGGACAUGAGGAUCACCCAUGUGAUCA [Ex4: 938] | 33.2 | 365 |
| AAAAAGUCAGGAUAUUCGGAAGGGAAAGCGCAAACCCAACCGAAGAAGGGACAUGAGGAUCACCCAUGUAAAAA [Ecls4-III] | 42.9 | 49.6 |
| AAAAAGUCAGGAUAUUCGGAUAGGAAAACGAAAACCUAUCCGAAGAAGGGACAUGAGGAUCACCCAUGUAAAAA [Ecls4-II] | 46.1 | 48.9 |
| AAAAAGUGAGGAUAUACAUGAGGAUCACCCAUGUGAAGGGAAGAGAGAGAGAGAGAGAGUAGAAGGCACAAAAA [Default title] | 96.3 | 98.8 |
| AAAAAGUGAGGAUAUACAUGAGGAUCACCCAUGUGAUAAAAAAAAAGGGUGGAAGAAAGUAGAAGGCACCAAAA [Ex 3 May 49] | 77.5 | 108 |
| AAAAAGUGAGGAUAUACAUGAGGAUCACCCAUGUGUAUAAAAAAUUACACAAAAGAAAGUAGAAGGCACUAAAG [Mat - Exclusion 3 - Mayanna mod - D112] | 30.8 | 17 |
| AAAAAGUGAGGAUAUACGAAAAAAAAAAAAAAAAAAGGUGAACAUGAGGAUCACCCAUGUAGAAGGCACAAAAA [Black Design] | 312 | 102 |
| AAAAAGUGAGGAUAUACGCGAACAAAAAAAAAAAAGAAAGCGUAGAAGGCACAUGAGGAUCACCCAUGUCCAAA [Alfred 64% 4] | 39 | 28 |
| AAAAAGUGAGGAUAUACGCGAACAAAAAUAAAAAAGAAAGCGUAGAAGGCACAUGAGGAUCACCCAUGUCCAAA [Alfred 64% 5] | 41.1 | 27.7 |
| AAAAAGUGAGGAUAUACGUUAAAAAAAAAAAAAAAAAAGCGGUAGAAGGCACAUGAGGAUCACCCAUGUAAAAA [Ex4 Malc#3] | 34.7 | 57.7 |
| AAAAAGUGAGGAUAUAGCAAAGGUCACGAAAGUGACAAAGGCUAGAAGGCACAUGAGGAUCACCCAUGUAAAAA [Fiskers Exclusion 4 D2 63% 1] | 34.9 | 41.6 |
| AAAAAGUGAGGAUAUGCAGUGGCCUGUAGACGCAAGCACUUGUAGAAGGCACAUGAGGAUCACCCAUGUUUAAA [EX4 Malc#30] | 28 | 30.9 |
| AAAAAGUGAGGAUAUUCGGAUAGGAAAACGAAAACCUAUCCGAAGAAGGCACAUGAGGAUCACCCAUGUGGGAA [67% Ecls-II - Early G + late G segment 3] | 75.9 | 52.6 |
| AAAAAGUUAGGAUAUACAUGAGGAUCACCCAUGUACAUAUAUGGAGAAAAAAACAGUAGUAGAAGGGACAAAAA [EX2 Malc#12] | 19.8 | 20.6 |
| AAAAAUCGAGGAUAUACAUGAGGAUCACCCAUGUCAAAAAAUGACUACACAAAAGAAAGUAGAAGGCGAUAAAG [Mat - Exclusion 3 - Mayanna mod - D129] | 36.6 | 25 |
| AAAAAUGGAGGAUAUACAUGAGGAUCACCCAUGUGUGACUAUACUAAGCGCUCUUCAGGUAGAAGGCCAAAAAA [Gilly Gone Silly 17 - Jieux - Exclusion 3] | 60.3 | 43.8 |
| AAAAAUGGAGGAUAUACAUGAGGAUCACCCAUGUUAGACCUAAAAAAAGGGAAAGAAAGUAGAAGGCCAUAAAA [Ex 3 May 29] | 20.6 | 17.5 |
| AAAAAUUGAGGAUAUACGUACAUGUCAAAAGACGUGAAGGGACAUGAGGAUCACCCAUGUAGAAGGCGAAAGAA [JL Neck Breaker 13] | 16 | 37.1 |
| AAAACACAUGAGGAUCACCCAUGUGAGGAUAUGAACGAAAUAAAAUAAAAAUAAAAGUUCAGAAGGCACAAAAA [Mat - Exclusion 1 - Eli mod - D13] | 36.6 | 22.2 |
| AAAACACAUGAGGAUCACCCAUGUGAGGAUAUGCUAUGGAAAAUAAAAAUAAAACAUAGCAGAAGGCGCAGGAA [Denovo 20] | 22.9 | 29.8 |
| AAAACGGCAGGAUAUACAGAUGAGAACUAGACCGAAAAAAAACAUGAGGAUCACCCAUGUAGAAGGGCCAAAAA [Ex2 Malc#7] | 36.8 | 27.8 |
| AAAACUAGAGGAUAUACGUACAUGUCAAAAGACGUGAAGGGACAUGAGGAUCACCCAUGUAGAAGGCUAGAAAA [JL Stem Breaker 9] | 104 | 45.2 |
| AAAACUGGAGGAUAUACAUGAGGAUCACCCAUGUGUGGAUGAGCUGAGACGGCAUCACGUAGAAGGCCACAAAA [Gilly Gone Silly 39 - Jieux - Exclusion 3] | 44 | 33.2 |
| AAAAGCUCAGGAUAUACGGUCUGUUGUUGAAAAAGUAAAAAACAUGAGGAUCACCCAUGUAGAAGGGAGCGAAA [Exclusion2-cac1] | 115 | 39.7 |
| AAAAGCUUAGGAUAUACACAAAAUAAAGGAGUGAUAUCAGAACAUGAGGAUCACCCAUGUAGAAGGAAGAAAUA [Ceerle] | 58 | 65.3 |
| AAAAGGAUAGGAUAUACAUGAGGAUCACCCAUGUGAAUAAAUAAAAUAAAUAAAUAAAGUAGAAGGGUCAAUAA [LROPPY Exclusion 3 - v05_deltaG=3.6 break up the As] | 25.4 | 27.8 |
| AAAAGGGCAGGAUAUGCGUACUCACGGGAAAACUGAAUGGUACAUGAGGAUCACCCAUGUAGAAGGGCUAAAAA [Dora Explored 19 - Jieux - Exclusion 2] | 37.8 | 54.6 |
| AAAAGGUCAGGAUAUGCCCGCCGGGUGGGAAGGCCGGGUGGGUAGAAGGGACAUGAGGAUCACCCAUGUAAAAA [Opal 42] | 47.9 | 52.4 |
| AAAAGUAGAGGAUAUACAUGAGGAUCACCCAUGUAGAAAGGAAGUAUAUAUAUGGCGUGUAGAAGGCUGCAUGA [Mat - Mod of Nando] | 28 | 26.7 |
| AAAAGUGGAGGAUAUACAUGAGGAUCACCCAUGUGUAAAAAUAAAAACACAAAAGAAAGUAGAAGGCCACAAAA [Ex 3 May 9] | 55.2 | 24.1 |
